This note sets out measurements from the DeepSol protein solubility set.

The data set can be described thus: soluble on expression in E. coli; label from the status in PepcDB or PDB records.
Turning to “MSYNYVVTAQKPTAVNGCVTGHFTSAEDLNLLIAKNTRLEIYVVTAEGLRPVKEVGMYGKIAVMELFRPKGESKDLLFILTAKYNACILEYKQSGESIDIITRAHGNVQDRIGRPSETGIIGIIDPECRMIGLRLYDGLFKVIPLDRDNKELKAFNIRLEELHVIDVKFLYGCQAPTICFVYQDPQGRHVKTYEVSLREKEFNKGPWKQENVEAEASMVIAVPEPFGGAIIIGQESITYHNGDKYLAIAPPIIKQSTIVCHNRVDPNGSRYLLGDMEGRLFMLLLEKEEQMDGTVTLKDLRVELLGETSIAECLTYLDNGVVFVGSRLGDSQLVKLNVDSNEQGSYVVAMETFTNLGPIVDMCVVDLERQGQGQLVTCSGAFKEGSLRIIRNGIGIHEHASIDLPGIKGLWPLRSDPNRETYDTLVLSFVGQTRVLMLNGEEVEETELMGFVDDQQTFFCGNVAHQQLIQITSASVRLVSQEPKALVSEWKEPQAKNISVASCNSSQVVVAVGRALYYLQIHPQELRQISHTEMEHEVACLDITPLGDSNGLSPLCAIGLWTDISARILKLPSFELLHKEMLGGEIIPRSILMTTFESSHYLLCALGDGALFYFGLNIETGLLSDRKKVTLGTQPTVLRTFRSLSTTNVFACSDRPTVIYSSNHKLVFSNVNLKEVNYMCPLNSDGYPDSLALANNSTLTIGTIDEIQKLHIRTVPLYESPRKICYQEVSQCFGVLSSRIEVQDTSGGTTALRPSASTQALSSSVSSSKLFSSSTAPHETSFGEEVEVHNLLIIDQHTFEVLHAHQFLQNEYALSLVSCKLGKDPNTYFIVGTAMVYPEEAEPKQGRIVVFQYSDGKLQTVAEKEVKGAVYSMVEFNGKLLASINSTVRLYEWTTEKDVRTECNHYNNIMALYLKTKGDFILVGDLMRSVLLLAYKPMEGNFEEIARDFNPNWMSAVEILDDDNFLGAENAFNLFVCQKDSAATTDEERQHLQEVGLFHLGEFVNVFCHGSLVMQNLGETSTPTQGSVLFGTVNGMIGLVTSLSESWYNLLLDMQNRLNKVIKSVGKIEHSFWRSFHTERKTEPATGFIDGDLIESFLDISRPKMQEVVANLQYDDGSGMKREATADDLIKVVEELTRIH”, the “soluble on expression in E. coli” value is “soluble”.

“GPLGMATEEAIIRIPPYHYIHVLDQNSNVSRVEVGPKTYIRQDNERVLFAPVRMVTVPPRHYCIVANPVSRDAQSSVLFDVTGQVRLRHADQEIRLAQDPFPLYPGELLEKDITPLQVVLPNTALHLKALLDFEDKNGDKVMAGDEWLFEGPGTYIPQKEVEVVEIIQATVIKQNQALRLRARKECFDRDGKERVTGEEWLVRSVGAYLPAVFEEVLDLVDAVILTEKTALHLRARQNFKDLRGVAHRTGEEWLVTVQDTEAHVPDVYEEVLGVVPITTLGPRHYCVILDPMGPDGKNQLGQKRVVKGEKSFFLQPGERLERGIQDVYVLSEQQGLLLKALQPLEEGEGEERVAHQAGDRWLIRGPLEYVPSAKVEVVEERQAIPLD”: the “soluble on expression in E. coli” value is “soluble”.

In the case of “GTGAESTAERSARFERDALEFLDQMYSAALRMTRNPADAEDLVQETYAKAYASFHQFREGTNLKAWLYRILTNTFINSYRKKQREPQ”, the “soluble on expression in E. coli” value is reported as “soluble”.

“MTIELRDVTMENYFDVLNLDVKEYQKQFIATNAISLAEAYVYTKNGDFVAPLAVYDNDAIIGFVMIAYDKKIGISSGNYLLFRFMIDKNFQNQGYFKPIMDKVLDYVRTAPAGLSNKLWLSYEPENEQARFCYLSYGFKETGEISENEVVAIYDLTIEK”: the “soluble on expression in E. coli” value is “not soluble”.

Consider “GPGSMAETRKEEWSEPEVPGGRSEVVAGIKRRREKLELYQSASHKMKALMMNSAGIRSGLGANNELPVNPIWMKFPTRCVKPIHSVEEMREKLHYFSHSDDVMVVRYHQENCTACNALDKTFEFLCHQSADRYPNLKFYEVSKDATPQLTRNLVRYPQVKGFSGGHWTDLEFKPPAEFREELYSGVEREVTRRKREGQPVTALEAEEMYYSSAGPAMAQVLEESVVKFYCKAQARLHNYWKQVSVRRAWFFRKFVEPKVDDQVRDEWRLKSVFGEKLSYGPEPQMEEF”, for which the “soluble on expression in E. coli” value was “not soluble”.

Regarding “TDIAGLTIEHVTGDYLNGFRIIPDNIKYKGVIVTFGGSDGTPAYEQAVQLAQEGYQVLALFFFGMPNQHPTLAEVPVEYYQEIESYISQHFSQPDKITVIGTSKGAEYALLLASLYDSIDNVVLYAPSSHIYAGLDFRNYSSSWSQNGKALPYLDVRSENSLKLFYNFLIKTPISYYHTYKQALDKDKNSEDKRIKVEKTKANILIFAGENDRMWPSAESARLIEKYQPNHTQVTIYKEAGHLFAGDGI”, the “soluble on expression in E. coli” value is “not soluble”.

For “GMAEKQYDFTHVPKRQGNSIKWGVLKEKELPMWIAEMDFKIAPEIMASMEEKLKVAAFGYESVPAEYYKAVADWEEIEHRARPKEDWCVFASGVVPAISAMVRQFTSPGDQILVQEPVYNMFYSVIEGNGRRVISSDLIYENSKYSVNWADLEEKLATPSVRMMVFCNPHNPIGYAWSEEEVKRIAELCAKHQVLLISDEIHGDLVLTDEDITPAFTVDWDAKNWVVSLISPSKTFNLAALHAACAIIPNPDLRARAEESFFLAGIGEPNLLAIPAAIAAYEEGHDWLRELKQVLRDNFAYAREFLAKEVPEVKVLDSNASYLAWVDISALGMNAEDFCKYLREKTGLIISAGNGYRGNGHEFVRINLACPKELVIDGMQRLKQGVLNLNN”, the “soluble on expression in E. coli” value was “soluble”.

Consider “MGSDKIHHHHHHMNYSHFVGLDVGKKTFDASLMSADEKELSHKSFDNTPTGIQSLLDWIAGYHLSLSKLLFCAENMGSYVTELSVSSVSMGFSLALVCPLTIKKSIGLQRGKNDRIDAKRIANYAVLHYRKLELYKLPDKDLVRLRGWIIIRDNLVKQKVSSIKLLETFSWMAKLADVTESISFLEEQLKSIKERILEVEEDMEQLIAASTSLYTNYLLLRSIKGIGIINAIVLLCVTDNFQRFDNPRKFACYCGVAPFEHTSGISIRGKTQTSSLANKEVKVYLTRAAITAISWDPQMKAYYKRKIAEGKHKASVINAVRAKIIARSFAVIRRQTPFVTLAV”, for which the “soluble on expression in E. coli” value is reported as “not soluble”.

In the case of “DHLHVIGDIYDRGPAPDKIMDRLMSYHSLDIQLGNHDMIWLAAYSGSLACLANVVRICARYGNLDLLEERYAIDLTALKKFSLETYKENPAFAPKKNPYRALTEAEKQVAMRVQQAIAIIQEKLEGQIIGRRPDFNLAHRLRLDKIQGETITFDECRYTLINSCFQTVSEEQPYQLTREEKQIIDDLLTQFQSSPRLTKHMRFLMEKASLYLVYNQNLLIHGCLPLNADGTFQAYTFKGHSYSGKALVDFFQEMLEEAYAQPASTDDYATDCLWYLWCGEGSSLFGKRAMKTFERYFLAEKETHYEEKNPYYSLRDTVEVCERILDEFEVTGENRHIINGHTPVKRTKGESPIKANGTLLVIDGGFSKSYQTITGIAGYTLLYNS”, the “soluble on expression in E. coli” value was “not soluble”.

Turning to “MRKNISENNGKRPGSVKSRFLVSAFAVFLVAYSQTGRSSEEVLEQYKSLFAQQQKEFEKQRQIIIEQGKEIEKLKSRLDSLITTQPTDRSPASNVAGKDGQRPPQVSSPSTPKTVVAGPVGKKNDQVQTRTVPGNLPAGPVGQAPPKQDEKPRPPEMPRLSDAVGGVLTRKGKIVVEPALEYAFTDSNRIFLDAFTFLPAIAIGLIDVRQVDQHSLMASIGARYGVTDRLEVEARVPYRARFDEQRSRPVSIGAGIDETFNASGNGLGDIEFAARYQLNSGAGGWPILVGNMRATVPTGKGPFDIKYAQAQGVPGAVFPTEVPTGSGFFSFEPSVTALYATDPAVFFANLAYNYNMGTTEKALDGSGDKFKVDPGYAVGMTFGMGFGINERSSFNIGYGHRHIFNTKINNRTLKGSQLDIGQLLLGYAFKYSQQTTLNFSIAIGTTDDAQDVRLSFRVPMTFLEHHHHHH”, the “soluble on expression in E. coli” value is reported as “soluble”.

As to “MGSDKIHHHHHHAQYNKVYADITANMLVDMGFENVIWSEDEKERVYVLENTPWRLQGVGLAHAIDRIQKTGLPEKGKSCRIVVLDNNIPQISLIYTANPDSLKAAPGSYAARSAWDATYDLGDSWDKVKKEYRMNSSLFKVDVVVYPELYLKNLIITQIYQVLFNLSPAIEVSFWNGMKLTAQMVFPIYNDGYGPWAGKIHPGMVTLSQSFRLPYRTFARASIGLFNADRYGVDLAVTHHLKDERFSLEGRIGCTGTGSWQKFEYHYGTHQRVTWSLGGSFYWPKYNTQVSLKAEQYLLGEIGGRIDLIRHFRYCSIGFYAMKAQGALKNGGFRFQVALPPYKYKRKNVRVLPSDNWGMSYNAGNERYYYKGYKASPNDNIMQQNQFNPYFIKSELLNF”, the “soluble on expression in E. coli” value is given as “not soluble”.

In the case of “MSIESSATPTTPNAEALQLNSTEVRILGCLIEKQATNPETYPLTLNALVIACNQKTSRDPVMNLTQGQVGQSLRALEGRGLTRLVMGSRADRWEHKVDKGLELVPAQVILTGLLLLRGPQTVSELLTRSNRMHDFEDSEQVVHQLERLIARGLATLVPRQSGQREDRYMHLIGDPEDLQDLLAARQQAPERGNAASPAATQRLDELEARIAALEERLARLE”, the “soluble on expression in E. coli” value was “not soluble”.

“SSEQTLEYFLNKGTIRRKDAADIEWYHAANSKSKLMEALRGSAQMIEADVLLRGADPEEPIMAHPPAKDSDITLQDWLKEVVKTDKGIKLDFKSLAAVSQSMSLLEEIRDQLKGPVWINADILPGPGGTATPVDPHVFLQEVAQRSENDVLSLGWTTGWTANVDNPGYSWEMVHQMEELCRPLKQPVTFPVRASLLPMSFPQFQWLLEQSDRSEILH”: the “soluble on expression in E. coli” value is on record as “soluble”.

For “MRKYTFKTQRPKIVVIGGGTGLPVVLNGLRKQAVDITAVVTVADDGGSSGIIRNYVNVVPPGDIRNVMVALSSWPDLYKDIFQYRFQGDDQFFAGHAIGNLIIAALTEMKSGVFDAVQELSNMMQVDGHVYPAANEALTLHGKFSDGTELVGEAEITAAHKSLERVWVTDKNGKEPQAVQPVIDAIMAADQIVLGPGSLFTSILPNLTIGNIGRAVCESDAEVVYICNIMTQKGETDNFSDADHVRVLNRHLGQNFINTVLVNTEKVPEDYMDFHKFNEVSKQVSHDFRGLREQNCRVISSNFLKLRDNGAFHDGDQVVAELMNLVGHSDVFRLEHHHHHH”, the “soluble on expression in E. coli” value is reported as “soluble”.

Regarding “RSDSMILMTVNPKTKKTTMMSLERDILTRIESGNGQAHEAKLNSAYADGGAELAIETIQKMMNIHIDRYVMVNMRGLQKLVDAVGGITVNNILGFPISISDQEEFNTISIGVGEQHIGGEEALVYARMRYQDPEGDYGRQKRQREVIQKVMEKALS”, the “soluble on expression in E. coli” value is recorded as “not soluble”.

With “MGSDKIHHHHHHENLYFQGMKIALIIENSQAAKNAVVHEALTTVAEPLGHKVFNYGMYTAEDKASLTYVMNGLLAGILLNSGAADFVVTGCGTGMGSMLAANAMPGVFCGLVIDPTDAFLFGQINDGNAISMPYSKGFGWAAELNLQDVYRKLFDGERGLGYPRERAEIMRKNRGILRELKDASCRDMLTVLKTVDQDLLRAAIAGEKFAELFYPNCKDDAIANYLRSLDA”, the “soluble on expression in E. coli” value was “soluble”.

For “MKGRVVIADDEPITRMDIVEMLLEEGYDIVGEASDGFDAIELCKKHKPDLVLMDVKMPLLNGLKAAEVINQDELAACVVLVTAYSGREFVEEAKKAGAMGYVVKPINEKNLLPTLEVAVSKSKEFNEMKSQVKKAQVQLEDRKQIERAKGILMKKEMLSEEEAYNQIRKLSMSKRCSMGEIAKIITMNQ”, the “soluble on expression in E. coli” value is “not soluble”.

With “MNTPSRTHLVIIPSYNPGPKVYETVQAARRYWNPVWVVVDGSTDGTWEGLLKLSAEDSGLVVLGMPANRGKGAAVLRGLLTSRRKGFTHALVMDSDGQHPADRIPEFMARSQEEPDAMILGVPVFDDSAPSLRVKGRRISNWWANLETLWCGIGDSLFGFGVYPIQALCVIMQDHQWMRRFDFDPEAAVRLCWAGIRPVNLPVPVYYPKPEEGGTSHFHYWRDNALLTWMHVRLMFGFLARLPILLARIVRRPEILEHHHHHH”, the “soluble on expression in E. coli” value is on record as “not soluble”.

On to “MLSKNLLEALNDQMNHEYFAAHAYMAMAAYCDKESYEGFANFFIQQAKEERFHGQKIYNYINDRGAHAEFRAVSAPKIDFSSILETFKDSLSQEQEVTRRFYNLSEIARQDKDYATISFLNWFLDEQVEEESMFETHINYLTRIGDDSNALYLYEKELGARTFDEE”, for which the “soluble on expression in E. coli” value was “not soluble”.
